Tested on: DNA polymerase III core (alpha-epsilon-theta) (Escherichia coli)
Experiment: single-molecule optical tweezers; fit of exonucleolysis initiation rate vs protein concentration (two-step model)
Conditions: biotinylated oligonucleotide ligated at one end; Optical tweezers buffer, salt, pH and temperature not given in the material; constant template force (55 pN for k2)

With “primer-template junction of single stretched DNA (8.1 kbp pBACgus11 construct or 38.5 kbp lambda DNA)” the Kd was 130 nM.

— paper PMC5477539
